In PMC10713552 (Communications Biology, 2023):
Residue numbers refer to the chain shown, from its start.

B1: 0313-IN3_T65R (antibody, V domains shown)
VH: QVQLQQWGPGLVNPSETLSLTCSVSGGSFATENYYWSWIRQHPGEGLEWIGNIYFSGNRYYNPSLNNRFTISFDTSKNHLSLKLPSVTAADTAVYYCARGTIYFDISGYRRVDPFHIWGQGTMVIVSS
VL: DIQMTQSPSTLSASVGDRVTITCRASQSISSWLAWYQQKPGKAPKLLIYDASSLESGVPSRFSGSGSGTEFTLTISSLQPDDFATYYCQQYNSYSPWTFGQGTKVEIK
notes: source: Expi293F, transfected
B2: 0347-MN3_T65M (antibody, V domains shown)
VH: B1 VH with R59M, I106M
VL: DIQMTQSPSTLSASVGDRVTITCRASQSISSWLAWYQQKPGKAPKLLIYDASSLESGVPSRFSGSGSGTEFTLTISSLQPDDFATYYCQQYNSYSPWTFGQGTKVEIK
notes: source: Expi293F, transfected
B3: 0307-IN3_T65K (antibody, V domains shown)
VH: B1 VH with R59K
VL: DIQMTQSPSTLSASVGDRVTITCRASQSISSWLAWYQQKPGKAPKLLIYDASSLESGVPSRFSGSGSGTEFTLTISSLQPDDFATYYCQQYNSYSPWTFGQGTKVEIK
notes: source: Expi293F, transfected
B4: 0335-LN3_T65V (antibody, V domains shown)
VH: B1 VH with R59V, I106L
VL: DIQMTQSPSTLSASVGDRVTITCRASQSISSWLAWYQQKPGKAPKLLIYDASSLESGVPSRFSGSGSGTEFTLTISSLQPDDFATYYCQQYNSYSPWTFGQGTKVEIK
notes: source: Expi293F, transfected
B5: 0350-MN3_T65Q (antibody, V domains shown)
VH: B1 VH with R59Q, I106M
VL: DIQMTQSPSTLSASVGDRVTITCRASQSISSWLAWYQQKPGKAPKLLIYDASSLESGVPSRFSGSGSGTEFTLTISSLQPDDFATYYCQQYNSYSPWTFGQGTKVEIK
notes: source: Expi293F, transfected
B6: 0377-YN3_T65D (antibody, V domains shown)
VH: B1 VH with R59D, I106Y
VL: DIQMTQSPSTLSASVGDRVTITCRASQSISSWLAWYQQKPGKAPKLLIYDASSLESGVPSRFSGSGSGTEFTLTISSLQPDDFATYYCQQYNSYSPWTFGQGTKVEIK
notes: source: Expi293F, transfected
B7: 0374-N3_T65W (antibody, V domains shown)
VH: B1 VH with R59W, I106R
VL: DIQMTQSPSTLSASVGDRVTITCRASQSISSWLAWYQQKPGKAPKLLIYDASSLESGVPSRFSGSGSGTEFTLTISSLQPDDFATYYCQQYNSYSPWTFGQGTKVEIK
notes: source: Expi293F, transfected
B8: 0342-MN3_T65G (antibody, V domains shown)
VH: B1 VH with R59G, I106M
VL: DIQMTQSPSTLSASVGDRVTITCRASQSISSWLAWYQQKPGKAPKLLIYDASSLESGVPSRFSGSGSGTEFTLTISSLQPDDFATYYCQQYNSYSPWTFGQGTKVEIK
notes: source: Expi293F, transfected
B9: 0370-N3_T65R (antibody, V domains shown)
VH: B1 VH with I106R
VL: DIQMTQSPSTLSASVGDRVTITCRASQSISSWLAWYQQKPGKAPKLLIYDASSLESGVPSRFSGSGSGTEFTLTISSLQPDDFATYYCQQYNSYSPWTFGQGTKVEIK
notes: source: Expi293F, transfected
B10: 0318-IN3_T65Y (antibody, V domains shown)
VH: B1 VH with R59Y
VL: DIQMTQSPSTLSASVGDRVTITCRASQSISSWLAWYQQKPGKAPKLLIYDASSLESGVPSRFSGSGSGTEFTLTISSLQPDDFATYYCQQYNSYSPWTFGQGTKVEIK
notes: source: Expi293F, transfected
B11: 0340-MN3_T65E (antibody, V domains shown)
VH: B1 VH with R59E, I106M
VL: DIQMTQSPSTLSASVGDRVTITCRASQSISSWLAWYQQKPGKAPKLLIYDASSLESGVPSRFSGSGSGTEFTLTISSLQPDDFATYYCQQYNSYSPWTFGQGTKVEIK
notes: source: Expi293F, transfected
B12: 0348-MN3_T65N (antibody, V domains shown)
VH: B1 VH with R59N, I106M
VL: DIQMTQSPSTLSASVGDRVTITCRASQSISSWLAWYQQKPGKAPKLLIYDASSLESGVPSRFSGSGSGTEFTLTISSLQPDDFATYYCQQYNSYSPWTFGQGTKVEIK
notes: source: Expi293F, transfected
B13: 0345-MN3_T65K (antibody, V domains shown)
VH: B1 VH with R59K, I106M
VL: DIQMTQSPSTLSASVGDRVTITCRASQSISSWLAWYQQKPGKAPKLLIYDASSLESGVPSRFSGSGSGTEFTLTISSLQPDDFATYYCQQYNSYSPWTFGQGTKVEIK
notes: source: Expi293F, transfected
B14: 0316-IN3_T65V (antibody, V domains shown)
VH: B1 VH with R59V
VL: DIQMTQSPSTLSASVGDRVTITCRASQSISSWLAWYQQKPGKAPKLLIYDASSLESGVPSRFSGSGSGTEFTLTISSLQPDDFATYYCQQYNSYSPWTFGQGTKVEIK
notes: source: Expi293F, transfected
B15: 0309-IN3_T65M (antibody, V domains shown)
VH: B1 VH with R59M
VL: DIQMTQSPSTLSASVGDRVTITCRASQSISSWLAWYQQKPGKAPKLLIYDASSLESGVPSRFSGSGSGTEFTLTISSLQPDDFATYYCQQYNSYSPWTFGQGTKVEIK
notes: source: Expi293F, transfected
B16: 0333-LN3_T65S (antibody, V domains shown)
VH: B1 VH with R59S, I106L
VL: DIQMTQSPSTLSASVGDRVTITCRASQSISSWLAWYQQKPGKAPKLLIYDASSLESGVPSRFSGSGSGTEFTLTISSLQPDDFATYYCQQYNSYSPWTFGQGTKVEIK
notes: source: Expi293F, transfected
B17: 0311-IN3_T65P (antibody, V domains shown)
VH: B1 VH with R59P
VL: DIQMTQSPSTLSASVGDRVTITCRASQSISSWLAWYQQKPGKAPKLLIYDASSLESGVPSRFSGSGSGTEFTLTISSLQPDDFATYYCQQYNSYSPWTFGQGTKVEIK
notes: source: Expi293F, transfected
B18: 0337-LN3_T65Y (antibody, V domains shown)
VH: B1 VH with R59Y, I106L
VL: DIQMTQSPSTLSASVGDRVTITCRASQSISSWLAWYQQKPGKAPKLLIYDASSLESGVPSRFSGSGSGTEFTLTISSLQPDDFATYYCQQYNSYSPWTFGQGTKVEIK
notes: source: Expi293F, transfected
B19: 0341-MN3_T65F (antibody, V domains shown)
VH: B1 VH with R59F, I106M
VL: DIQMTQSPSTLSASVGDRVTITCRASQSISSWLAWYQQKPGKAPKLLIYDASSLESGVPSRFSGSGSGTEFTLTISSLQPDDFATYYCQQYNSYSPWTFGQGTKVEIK
notes: source: Expi293F, transfected
B20: 0330-LN3_T65P (antibody, V domains shown)
VH: B1 VH with R59P, I106L
VL: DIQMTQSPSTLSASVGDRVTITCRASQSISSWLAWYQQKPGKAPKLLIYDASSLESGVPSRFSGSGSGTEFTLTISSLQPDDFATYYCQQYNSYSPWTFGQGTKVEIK
notes: source: Expi293F, transfected
B21: 0338-MN3_T65A (antibody, V domains shown)
VH: B1 VH with R59A, I106M
VL: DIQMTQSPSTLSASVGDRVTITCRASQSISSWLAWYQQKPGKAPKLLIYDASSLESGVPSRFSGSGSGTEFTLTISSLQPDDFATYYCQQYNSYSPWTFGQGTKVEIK
notes: source: Expi293F, transfected
B22: 0317-IN3_T65W (antibody, V domains shown)
VH: B1 VH with R59W
VL: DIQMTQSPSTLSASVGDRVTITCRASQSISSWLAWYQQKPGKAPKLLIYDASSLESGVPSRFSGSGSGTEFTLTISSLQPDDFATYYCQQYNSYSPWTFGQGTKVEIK
notes: source: Expi293F, transfected
B23: 0388-YN3_T65Q (antibody, V domains shown)
VH: B1 VH with R59Q, I106Y
VL: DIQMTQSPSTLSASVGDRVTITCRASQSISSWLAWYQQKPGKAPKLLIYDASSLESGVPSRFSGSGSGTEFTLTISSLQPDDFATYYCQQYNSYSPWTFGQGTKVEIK
notes: source: Expi293F, transfected
B24: 0331-LN3_T65Q (antibody, V domains shown)
VH: B1 VH with R59Q, I106L
VL: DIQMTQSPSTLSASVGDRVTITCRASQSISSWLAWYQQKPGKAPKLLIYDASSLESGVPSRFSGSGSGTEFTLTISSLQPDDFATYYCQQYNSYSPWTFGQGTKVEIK
notes: source: Expi293F, transfected
B25: 0360-N3_T65F (antibody, V domains shown)
VH: B1 VH with R59F, I106R
VL: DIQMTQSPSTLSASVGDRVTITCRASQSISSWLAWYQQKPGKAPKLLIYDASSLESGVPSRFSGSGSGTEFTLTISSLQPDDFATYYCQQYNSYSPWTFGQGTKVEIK
notes: source: Expi293F, transfected
B26: 0312-IN3_T65Q (antibody, V domains shown)
VH: B1 VH with R59Q
VL: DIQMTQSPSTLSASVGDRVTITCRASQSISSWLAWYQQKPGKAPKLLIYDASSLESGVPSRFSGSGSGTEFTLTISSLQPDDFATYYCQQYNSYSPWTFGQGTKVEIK
notes: source: Expi293F, transfected
B27: 0373-N3_T65V (antibody, V domains shown)
VH: B1 VH with R59V, I106R
VL: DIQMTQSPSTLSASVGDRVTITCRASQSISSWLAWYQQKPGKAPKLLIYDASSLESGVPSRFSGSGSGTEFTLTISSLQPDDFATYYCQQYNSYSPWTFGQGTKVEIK
notes: source: Expi293F, transfected
B28: 0302-IN3_T65E (antibody, V domains shown)
VH: B1 VH with R59E
VL: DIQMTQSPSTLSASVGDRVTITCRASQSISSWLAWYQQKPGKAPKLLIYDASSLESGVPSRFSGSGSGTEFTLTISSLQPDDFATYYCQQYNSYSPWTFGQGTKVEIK
notes: source: Expi293F, transfected

Experiments:
[1] = target: D614G-Hexapro (WT) spike ectodomain (SARS-CoV-2 Wuhan-Hu-1 D614G, D614G); assay: BLI
[2] = target: Omicron BA.1 spike protein ectodomain (BLI) (SARS-CoV-2 Omicron BA.1, strain); assay: BLI

Binder	Kd [1] [nM]	koff [1] [s⁻¹]	kon [1] [M⁻¹ s⁻¹]	Kd [2] [nM]	koff [2] [s⁻¹]	kon [2] [M⁻¹ s⁻¹]
B1	0.873	0.000516	591000	7.36	0.000758	103000
B2	880	0.000233	264	39.7	0.00209	52700
B3	0.208	5.6e-05	269000	31.7	0.000872	27500
B4	135	0.000502	3730	49.2	0.00196	39700
B5	643	0.00015	233	38.5	0.000871	22700
B6	634	0.000153	242	13.4	0.000269	20100
B7			190	42.5	0.000694	16300
B8	69.1	0.000217	3140	8.08	0.000428	53000
B9	111	3.63e-05	328	12.1	0.000266	22000
B10	1.07	0.000222	207000	29.4	0.00117	39800
B11	371	7.27e-05	196	48.2	0.0021	43700
B12	130	9.93e-05	765	43	0.00196	45700
B13	346	7.97e-05	230	41.4	0.00172	41600
B14	89.3	2.62e-05	294	10.6	0.000555	52400
B15			184	15.7	0.00102	64800
B16	146	4.17e-05	285	11.7	0.000566	48500
B17	200	0.000578	2890	10.9	0.000965	88200
B18	87.3	0.000393	4500	11.7	0.000305	26100
B19	146	0.000179	1230	41.2	0.00171	41500
B20	686	0.00219	3190	32.6	0.00229	70200
B21	373	0.000121	325	25	0.00154	61800
B22	1.41	0.000282	199000	16.3	0.000834	51200
B23	1910	0.00186	973	37.7	0.00058	15400
B24	1.18	0.00083	703000	38.2	0.00223	58400
B25	355	0.000217	612	18.5	0.000659	35700
B26	2.23	0.000511	229000	13.2	0.000887	67300
B27	324	0.000461	1420	16	0.000565	35200
B28	776	0.000163	210	8.27	0.000634	76700
